Experimental data published in US20230035659A1, “Compositions and Methods for TTR Gene Editing and Treating ATTR Amyloidosis Comprising a Corticosteroid or Use Thereof” (Intellia Therapeutics, Inc., priority 2019, published 2023).
Strand notation (5' to 3'): a small letter for the sugar, then the base; units joined by * are phosphorothioate-linked, units joined directly phosphodiester-linked; [ ] holds rarer units or linkages, { } end groups; capitals alone tell only the bases. m = 2'-O-methyl; r = 2'-OH (RNA)

B1: G000571: TTR sgRNA modified sequence, Human, SEQ ID NO: 112; guide sequence of CR005301 (nucleic acid)
guide: mG*mU*mC*rArCrArGrArArArCrArCrUrCrArCrCrGrUrGrUrUrUrUrArGrAmGmCmUmAmGmAmAmAmUmAmGmCrArArGrUrUrArArArArUrArArGrGrCrUrArGrUrCrCrGrUrUrArUrCrAmAmCmUmUmGmAmAmAmAmAmGmUmGmGmCmAmCmCmGmAmGmUmCmGmGmUmGmCmU*mU*mU*mU
B2: G000510: TTR Cyno specific sgRNA modified sequence, SEQ ID NO: 122; guide sequence of CR005370 (nucleic acid)
guide: mA*mC*mU*rUrGrUrCrUrUrCrUrCrUrArUrArCrCrCrArGrUrUrUrUrArGrAmGmCmUmAmGmAmAmAmUmAmGmCrArArGrUrUrArArArArUrArArGrGrCrUrArGrUrCrCrGrUrUrArUrCrAmAmCmUmUmGmAmAmAmAmAmGmUmGmGmCmAmCmCmGmAmGmUmCmGmGmUmGmCmU*mU*mU*mU
B3: G000509: TTR Cyno specific sgRNA modified sequence, SEQ ID NO: 121; guide sequence of CR005369 (nucleic acid)
guide: mA*mA*mA*rGrUrUrCrUrArGrArUrGrCrCrGrUrCrCrGrGrUrUrUrUrArGrAmGmCmUmAmGmAmAmAmUmAmGmCrArArGrUrUrArArArArUrArArGrGrCrUrArGrUrCrCrGrUrUrArUrCrAmAmCmUmUmGmAmAmAmAmAmGmUmGmGmCmAmCmCmGmAmGmUmCmGmGmUmGmCmU*mU*mU*mU
B4: G000504: TTR Cyno specific sgRNA modified sequence, SEQ ID NO: 116; guide sequence of CR005364 (nucleic acid)
guide: mA*mA*mA*rGrGrCrUrGrCrUrGrArUrGrArGrArCrCrUrGrUrUrUrUrArGrAmGmCmUmAmGmAmAmAmUmAmGmCrArArGrUrUrArArArArUrArArGrGrCrUrArGrUrCrCrGrUrUrArUrCrAmAmCmUmUmGmAmAmAmAmAmGmUmGmGmCmAmCmCmGmAmGmUmCmGmGmUmGmCmU*mU*mU*mU
B5: G000505: TTR Cyno specific sgRNA modified sequence, SEQ ID NO: 117; guide sequence of CR005365 (nucleic acid)
guide: mC*mA*mU*rUrGrArCrArGrCrArGrGrArCrUrGrCrCrUrGrUrUrUrUrArGrAmGmCmUmAmGmAmAmAmUmAmGmCrArArGrUrUrArArArArUrArArGrGrCrUrArGrUrCrCrGrUrUrArUrCrAmAmCmUmUmGmAmAmAmAmAmGmUmGmGmCmAmCmCmGmAmGmUmCmGmGmUmGmCmU*mU*mU*mU

How the values were obtained:
TTR [1] = assay: TTR editing dose response (EC50, maximum editing) in primary human hepatocytes treated with LNP formulated U-depleted Spy Cas9 mRNA and sgRNAs; assay type: cell-based
Description: (§1) Primary liver hepatocytes. Primary human liver hepatocytes (PHH) and primary cynomolgus liver hepatocytes (PCH) (Gibco) were cultured per the manufacturer's protocol (Invitrogen, protocol 11.28.2012). In brief, the cells were thawed and resuspended in hepatocyte thawing medium with supplements (Gibco, Cat. CM7000) followed by centrifugation at 100 g for 10 minutes for human and 80 g for 4 minutes for cyno. The supernatant was discarded and the pelleted cells resuspended in hepatocyte plating medium plus supplement pack (Invitrogen, Cat. A1217601 and CM3000). Cells were counted and plated on Bio-coat collagen I coated 96-well plates (ThermoFisher, Cat. 877272) at a density of 33,000 cells/well for human or 60,000 cells/well for cyno (or 65,000 cells/well when assaying effects on TTR protein, described further below). Plated cells were allowed to settle and adhere for 6 or 24 hours in a tissue culture incubator at 37° C. and 5% CO2 atmosphere. After incubation cells were checked for monolayer formation and media was replaced with hepatocyte culture medium with serum-free supplement pack (Invitrogen, Cat. A1217601 and CM4000).
(§2) For LNPs prepared using the cross-flow technique, the LNPs were formed by impinging jet mixing of the lipid in ethanol with two volumes of RNA solutions and one volume of water. The lipid in ethanol is mixed through a mixing cross with the two volumes of RNA solution. A fourth stream of water is mixed with the outlet stream of the cross through an inline tee. (See WO2016010840 FIG. 2.) The LNPs were held for 1 hour at room temperature, and further diluted with water (approximately 1:1 v/v). Diluted LNPs were concentrated using tangential flow filtration on a flat sheet cartridge (Sartorius, 100 kD MWCO) and then buffer exchanged by diafiltration into 50 mM Tris, 45 mM NaCl, 5% (w/v) sucrose, pH 7.5 (TSS). Alternatively, the final buffer exchange into TSS was completed with PD-10 desalting columns (GE). If required, formulations were concentrated by centrifugation with Amicon 100 kDa centrifugal filters (Millipore). The resulting mixture was then filtered using a 0.2 μm sterile filter. The final LNP was stored at 4° C. or −80° C. until further use.
(§3) Additional PCR was performed per the manufacturer's protocols (Illumina) to add chemistry for sequencing. The amplicons were sequenced on an Illumina MiSeq instrument. The reads were aligned to a reference genome (e.g., the human reference genome (hg38), the cynomologus reference genome (mf5), the rat reference genome (rn6), or the mouse reference genome (mm10)) after eliminating those having low quality scores. The resulting files containing the reads were mapped to the reference genome (BAM files), where reads that overlapped the target region of interest were selected and the number of wild type reads versus the number of reads which contain an insertion, substitution, or deletion was calculated.
(§4) The editing percentage (e.g., the “editing efficiency” or “percent editing” or “indel frequency”) is defined as the total number of sequence reads with insertions/deletions (“indels”) or substitutions over the total number of sequence reads, including wild type.
(§5) Lipid nanoparticle formulations of modified sgRNAs targeting human TTR and the cyno matched sgRNA sequences were tested on primary human hepatocytes and primary cyno hepatocytes in a dose response curve. Primary human and cyno hepatocytes were plated as described in Example 1. Both cell lines were incubated at 37° C., 5% CO2 for 24 hours prior to treatment with LNPs. The LNPs used in the experiments detailed in Tables 20-22 were prepared using the cross-flow procedure described above but purified using PD-10 columns (GE Healthcare Life Sciences) and concentrated using Amicon centrifugal filter units (Millipore Sigma), each containing the specified sgRNA and Cas9 mRNA (SEQ ID NO:1). […] LNPs were incubated in hepatocyte maintenance media containing 6% cyno serum at 37° C., 5% CO2 for 5 minutes. […]

TTR [2] = assay: TTR editing dose response (EC50, maximum editing) in primary cyno hepatocytes treated with LNP formulated U-depleted Spy Cas9 mRNA and sgRNAs; assay type: cell-based, cynomolgus monkey
Description: as §1, §2, §3, §4, §5

[3] = test system: potential off-target genomic sites; assay: Off-target analysis by oligo insertion based assay in primary human hepatocytes (sgRNAs); assay type: cell-based; conditions: 100 ng Cas9 mRNA, 25 nM sgRNA, 12.5 nM donor oligo, 48 h
Description: Off-target analysis of sgRNAs targeting TTR was performed in primary human hepatocytes (PHH) as described in Example 5, with the following modifications. PHH were plated at a density of 33,000 cells per well on collagen-coated 96-well plates as described in Example 1. Twenty-four hours post plating, cells were washed with media and transfected using Lipofectamine RNAiMAX (ThermoFisher, Cat. 13778150) as described in Example 1. Cells were transfected with a lipoplex containing 100 ng Cas9 mRNA, immediately followed by the addition of another lipoplex containing 25 nM of the sgRNA and 12.5 nM of the donor oligo (0.3 μL/well). Cells were lysed 48 hours post-transfection and gDNA was extracted and analyzed as further described in Example 5. The data is graphically represented in FIG. 20.
Fewer sites were detected in PHH for every guide tested as compared to the HekCas9 cell line, with no unique sites detected in PHH alone.

TTR mRNA = TTR mRNA knockdown (quantitative PCR) in primary human hepatocytes treated with LNPs; assay type: cell-based; conditions: PHH; LNP dose 300 ng mRNA cargo; gRNA:mRNA 1:2; 96 h; biological triplicates; vs untreated control
Description: In one experiment, PHH were cultured and treated with LNPs comprising Cas9 mRNA (SEQ ID NO:1) and a gRNA of interest (See FIG. 29, Table 36), as described in Example 4. The LNPs were prepared using the cross-flow procedure described above and purified and concentrated using PD-10 columns and Amicon centrifugal filter units, respectively. The LNPs were formulated with an N:P ratio of 6.0 and contained Lipid A, Cholesterol, DSPC, and PEG2k-DMG in a 50:38:9:2 molar ratio, respectively. The LNPs comprised a gRNA:mRNA ratio of 1:2, and the cells were treated at a dose of 300 ng (with respect to the amount of mRNA cargo delivered).
(§6) Ninety-six (96) hours following LNP treatment (with biological triplicates for each condition), mRNA was purified from PHH cells using the Dynabeads mRNA DIRECT Kit (ThermoFisher Scientific) according to the manufacturer's protocol. Reverse Transcription (RT) was performed with Maxima reverse transcriptase (ThermoFisher Scientific) and a poly-dT primer. The resulting cDNA was purified with Ampure XP Beads (Agencourt). For Quantitative PCR, 2% of the purified cDNA was amplified with Taqman Fast Advanced Mastermix and 3 Taqman probe sets, TTR (Assay ID: Hs00174914_m1), GAPDH (Assay ID: Hs02786624_g1), and PPIB (Assay ID: Hs00168719_m1). The assays were run on the QuantStudio 7 Flex Real Time PCR System according to the manufacturer's instructions (Life Technologies). Relative expression of TTR mRNA was calculated by normalizing to the endogenous controls (GAPDH and PPIB) individually, and then averaged.
The groups in FIG. 29 and Table 36 are identified by the gRNA ID used in each LNP preparation.
In a separate experiment, TTR mRNA knockdown was evaluated following treatment with LNPs comprising G000480, G000486, and G000502. The LNPs were formulated and PHH were cultured and treated with the LNPs, each as described in the experiment above in this Example with the exception that the cells were treated at a dose of 100 ng (with respect to the amount of mRNA cargo delivered).
as §6, with “(single treatment” for “(with biological triplicates”, “the High Capacity cDNA Reverse Transcription Kit” for “Maxima reverse transcriptase”, “according to the manufacturer's instructions.” for “and a poly-dT primer. The resulting cDNA was purified with Ampure XP Beads (Agencourt).”, “the” for “the purified”
The groups in FIG. 30 and Table 37 are identified by the gRNA ID used in each LNP preparation.

TTR [4] = assay: TTR editing in primary cyno hepatocytes treated with LNP formulated Spy Cas9 mRNA (SEQ ID NO: 2) and sgRNAs, 12.5 ng mRNA; assay type: cell-based, cynomolgus monkey; conditions: LNP formulated Spy Cas9 mRNA (SEQ ID NO: 2) and cyno matched sgRNA, lysed 72 hours post treatment
Description: as §1
In general, the lipid nanoparticle components were dissolved in 100% ethanol with the lipid component of various molar ratios. The RNA cargos were dissolved in 25 mM citrate, 100 mM NaCl, pH 5.0, resulting in a concentration of RNA cargo of approximately 0.45 mg/mL. The LNPs were formulated with a lipid amine to RNA phosphate (N:P) molar ratio of about 4.5 or about 6, with the ratio of mRNA to gRNA at 1:1 by weight.
The LNPs were formed by microfluidic mixing of the lipid and RNA solutions using a Precision Nanosystems NanoAssemblr™ Benchtop Instrument, according to the manufacturer's protocol. A 2:1 ratio of aqueous to organic solvent was maintained during mixing using differential flow rates. […]
as §3, with “The amplicons were sequenced on an Illumina MiSeq instrument.” left out
The editing percentage (e.g., the “editing efficiency” or “percent editing” or “indel frequency”) is defined as the total number of sequence reads with insertions/deletions (“indels”) or substitutions over the total number of sequence reads, including wild type. […]

[5] = LNP formulated U-depleted Spy Cas9 mRNA and human specific sgRNAs
[6] = LNP with U-depleted Spy Cas9 mRNA and cyno specific sgRNA, 8 point 3-fold dose response starting at 300 ng mRNA, 72 hours
[7] = LNP formulated U-depleted Spy Cas9 mRNA and cyno specific sgRNAs

Row | Molecule | Max Editing (TTR [2]; [5]) | 12.5 ng mRNA, 3.9 nM sgRNA, Avg % Edit (TTR [4]) | Max Editing (TTR [1]; [6]) | Max Editing (TTR [2]; [7]) | other results
1 | B1 | 97.03% | – | – | – | Max Editing (TTR [1]; LNP formulated U-depleted Spy Cas9 mRNA and human specific sgRNAs, dose response): 71.28%; # Sites in PHH (off-target integration sites detected) [3]: 1; Avg % Knockdown (TTR mRNA) (TTR mRNA): 96.17%
2 | B2 | – | 61.87% | – | – | –
3 | B3 | – | 74.47% | – | – | –
4 | B4 | 7.16% | – | 7.16% | 98.04% | –
5 | B5 | 13.48% | – | 13.48% | 99.97% | –
